The test system of this assay is liver fibrosis in NASH subjects. Briefly: Simtuzumab clinical studies (SIM 0105/0106) in NASH, CRN fibrosis stage change at week 48. Type of assay: in vivo, human. To be noted: SIM study samples.

B1: simtuzumab (antibody, chains of the INN, looked up, V domains shown)
VH: QVQLVQSGAEVKKPGASVKVSCKASGYAFTYYLIEWVRQAPGQGLEWIGVINPGSGGTNYNEKFKGRATITADKSTSTAYMELSSLRSEDTAVYFCARNWMNFDYWGQGTTVTVSS
VL: DIVMTQTPLSLSVTPGQPASISCRSSKSLLHSNGNTYLYWFLQKPGQSPQFLIYRMSNLASGVPDRFSGSGSGTDFTLKISRVEAEDVGVYYCMQHLEYPYTFGGGTKVEIK
Regarding B1, the “efficacy on fibrosis stage change” value is on record as “lack of efficacy”.

Values taken from US20200340060A1, “COMPOSITIONS AND METHODS FOR IDENTIFYING AND TREATING LIVER DISEASES AND MONITORING TREATMENT OUTCOMES” (Gilead Sciences, Inc., priority 2017, published 2020).
